Source: patent US20110269161

Legend:
[1] = molecular target: T1, peptide E11 (RKRLISSVEDPFR), derived from tuberin (Ser1798)
T1 chain: RKRLISSVEDPFR

[2] = molecular target: T2, peptide F6 (RIRTQSFSLQPFR), derived from nitric-oxide synthase, endothelial (Ser1176)
T2 chain: RIRTQSFSLQPFR

[3] = molecular target: T3, peptide B6 (PKRKVSSAEGPFR), derived from nonhistone chromosomal protein HMG-14 (Ser6)
T3 chain: PKRKVSSAEGPFR

[4] = molecular target: T4, peptide C11 (NKRRGSVPILPFR), derived from erythrocyte membrane protein band 4.2 (Ser247)
T4 chain: NKRRGSVPILPFR

[5] = molecular target: T5, peptide C6 (TKRSGSVYEPPFR), derived from phosphorylase b kinase regulatory subunit beta (Ser26)
T5 chain: TKRSGSVYEPPFR

[6] = molecular target: T6, peptide G5 (SKRRNSEFEIPFR), derived from tryptophan 5-hydroxylase 1 (Ser58)
T6 chain: SKRRNSEFEIPFR

B1: 90 kDa ribosomal S6 kinases 1 (RSK1, 1-735), purified human active kinase (protein)
chain: MPLAQLKEPWPLMELVPLDPENGQTSGEEAGLQPSKDEGVLKEISITHHVKAGSEKADPSHFELLKVLGQGSFGKVFLVRKVTRPDSGHLYAMKVLKKATLKVRDRVRTKMERDILADVNHPFVVKLHYAFQTEGKLYLILDFLRGGDLFTRLSKEVMFTEEDVKFYLAELALGLDHLHSLGIIYRDLKPENILLDEEGHIKLTDFGLSKEAIDHEKKAYSFCGTVEYMAPEVVNRQGHSHSADWWSYGVLMFEMLTGSLPFQGKDRKETMTLILKAKLGMPQFLSTEAQSLLRALFKRNPANRLGSGPDGAEEIKRHVFYSTIDWNKLYRREIKPPFKPAVAQPDDTFYFDTEFTSRTPKDSPGIPPSAGAHQLFRGFSFVATGLMEDDGKPRAPQAPLHSVVQQLHGKNLVFSDGYVVKETIGVGSYSECKRCVHKATNMEYAVKVIDKSKRDPSEEIEILLRYGQHPNIITLKDVYDDGKHVYLVTELMRGGELLDKILRQKFFSEREASFVLHTIGKTVEYLHSQGVVHRDLKPSNILYVDESGNPECLRICDFGFAKQLRAENGLLMTPCYTANFVAPEVLKRQGYDEGCDIWSLGILLYTMLAGYTPFANGPSDTPEEILTRIGSGKFTLSGGNWNTVSETAKDLVSKMLHVDPHQRLTAKQVLQHPWVTQKDKLPQSQLSHQDLQLVKGAMAATYSALNSSKPTPQLKPIESSILAQRRVRKLPSTTL
Question: What does the source list for B1?
Answer: phosphorylation by purified kinase (KAYAK profiling of 90 peptides) [1]: is preferably phosphorylated by purified RSK1 enzyme; peptide phosphorylation, 100 µM peptide reacted individually [2]: both RSK and Akt demonstrated strong phosphorylation; in vitro peptide phosphorylation by recombinant kinase (KAYAK, LC-MS) [3]: recombinant RSK1 could robustly phosphorylate peptides B6, C6, C11 and G5 in vitro; in vitro peptide phosphorylation by recombinant kinase (KAYAK, LC-MS) [4]: recombinant RSK1 could robustly phosphorylate peptides B6, C6, C11 and G5 in vitro; in vitro peptide phosphorylation by recombinant kinase (KAYAK, LC-MS) [5]: recombinant RSK1 could robustly phosphorylate peptides B6, C6, C11 and G5 in vitro; in vitro peptide phosphorylation by recombinant kinase (KAYAK, LC-MS) [6]: recombinant RSK1 could robustly phosphorylate peptides B6, C6, C11 and G5 in vitro
